Source: patent publication US20230322953A1 (HARBOUR BIOMED SHANGHAI, published 2023)

T1: human BCMA (human, UniProt Q02223 1-184)
T1 construct: whole, on cells; also called hBCMA; TNFRSF17
T1 sequence (looked up): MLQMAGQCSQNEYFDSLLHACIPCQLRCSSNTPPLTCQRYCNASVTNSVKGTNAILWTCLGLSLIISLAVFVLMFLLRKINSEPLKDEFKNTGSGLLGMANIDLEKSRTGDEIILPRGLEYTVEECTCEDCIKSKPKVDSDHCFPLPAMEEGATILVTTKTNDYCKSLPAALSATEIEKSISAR


What was measured:
human BCMA [1] = target: T1, human BCMA; assay: FACS on HEK293T/hBCMA cells, Experiment 2
Experimental: This example is intended to investigate the binding activity of anti-BCMA HCAb antibodies to human and cynomolgus monkey BCMAs. […] Specifically, HEK293T/hBCMA cells and HEK293T/cyno BCMA cells were digested and resuspended in a DMEM complete medium. In addition, NCI-H929 cell suspension was collected. The density of each of the three cells was adjusted to 1×10⁶ cells/mL. […] The cells were incubated at 4° C. for 1 h away from light. Thereafter, the cells in each well were rinsed twice with 100 μL of pre-cooled PBS, and centrifuged at 500 g at 4° C. for 5 min, and then the supernatant was discarded. […] The cells in each well were rinsed twice with 100 μL of pre-cooled PBS, and centrifuged at 500 g at 4° C. for 5 min, and then the supernatant was discarded. Finally, the cells in each well were resuspended in 200 μL of pre-cooled PBS. Fluorescence signal values were read using a BD FACS CANTOII flow cytometer or an ACEA NovoCyte flow cytometer, and the data were processed and analyzed using FlowJo v10 (FlowJo, LLC) software. The data were processed and analyzed by plotting using GraphPad Prism 8 software, and binding curves of the antibodies to target cells, EC₅₀ values and other parameters were obtained through four-parameter nonlinear fitting.

human BCMA [2] = target: T1, human BCMA; assay: FACS on NCI-H929 cells
cynomolgus monkey BCMA = target: T2, cynomolgus monkey BCMA (cynomolgus monkey, UniProt A0A2K5UD97 1-183); assay: FACS on HEK293T/cyno BCMA cells
T2 construct: whole, on cells; also called cyno BCMA
T2 sequence (A0A2K5UD97 entry or part of it): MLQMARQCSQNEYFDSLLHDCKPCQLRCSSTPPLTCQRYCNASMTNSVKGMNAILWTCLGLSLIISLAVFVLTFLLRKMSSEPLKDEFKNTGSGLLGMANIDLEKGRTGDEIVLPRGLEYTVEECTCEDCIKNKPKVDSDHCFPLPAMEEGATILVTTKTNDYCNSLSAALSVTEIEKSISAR

| Binder | EC50 (human BCMA [1]) | Maximum MFI (human BCMA [1]) | EC50 (human BCMA [2]) | Maximum MFI (human BCMA [2]) | Maximum MFI (cynomolgus monkey BCMA) |
| --- | --- | --- | --- | --- | --- |
| PR002328 (bispecific antibody, human IgG1, lambda, L234A L235A) light: QAVVTQEPSLTVSPGGTVTLTCRSSTGAVTTSNYANWVQQKPGQAPRGLIGGTNKRAPWTPARFSGSLLGDKAALTLLGAQPEDEAEYFCALWYSNLWVFGGGTKLTVLGQPKAAPSVTLFPPSSEELQANKATLVCLISDFYPGAVTVAWKADSSPVKAGVETTTPSKQSNNKYAASSYLSLTPEQWKSHRSYSCQVTHEGSTVEKTVAPTECS heavy: EVQLLESGGGLVQPGGSLRLSCAASGFTFSTYAMNWVRQAPGKGLEWVSRIRSKYNNYATYYADSVKDRFTISRDDSKSTLYLQMNSLRAEDTAVYYCVRHGNFGNSYVSWFAYWGQGTLVTVSSASTKGPSVFPLAPSSKSTSGGTAALGCLVKDYFPEPVTVSWNSGALTSGVHTFPAVLQSSGLYSLSSVVTVPSSSLGTQTYICNVNHKPSNTKVDKKVEPKSCDKTHTCPPCPAPEAAGGPSVFLFPPKPKDTLMISRTPEVTCVVVDVSHEDPEVKFNWYVDGVEVHNAKTKPREEQYNSTYRVVSVLTVLHQDWLNGKEYKCKVSNKALGAPIEKTISKAKGQPREPQVYTLPPCREEMTKNQVSLWCLVKGFYPSDIAVEWESNGQPENNYKTTPPVLDSDGSFFLYSKLTVDKSRWQQGNVFSCSVMHEALHNHYTQKSLSLSPGK EVQLVETGGGLIQPGGSLRLSCAASGFTVSSNYMTWVRQAPGKGLEWVSVIFSGGSTYYADSVKGRFTISRDNSKNTLYLQMNSLRAEDTAVYYCARRIAVAGHDVFDIWGQGTMVTVSSRTGGGGSGGGGSGGGGSGGGGSGGGGSKLEVQLVETGGGLIQPGGSLRLSCAASGFTVSDNYMTWVRQAPGKGLEWVSVIFSGGNTYYADSVKGRFTISRDNAKNTLYLQMNSLRAEDTALYYCARRNYDDTRGTDVFDIWGQGTMVTVSSASEPKSSDKTHTCPPCPAPEAAGGPSVFLFPPKPKDTLMISRTPEVTCVVVDVSHEDPEVKFNWYVDGVEVHNAKTKPREEQYNSTYRVVSVLTVLHQDWLNGKEYKCKVSNKALGAPIEKTISKAKGQPREPQVCTLPPSREEMTKNQVSLSCAVKGFYPSDIAVEWESNGQPENNYKTTPPVLDSDGSFFLVSKLTVDKSRWQQGNVFSCSVMHEALHNHYTQKSLSLSPGK | – | – | 6.89 nM | 58900 | 7810 |
| PR002313 (bispecific antibody, human IgG1, lambda, L234A L235A) light: QAVVTQEPSLTVSPGGTVTLTCRSSTGAVTTSNYANWVQQKPGQAPRGLIGGTNKRAPWTPARFSGSLLGDKAALTLLGAQPEDEAEYFCALWYSNLWVFGGGTKLTVLGQPKAAPSVTLFPPSSEELQANKATLVCLISDFYPGAVTVAWKADSSPVKAGVETTTPSKQSNNKYAASSYLSLTPEQWKSHRSYSCQVTHEGSTVEKTVAPTECS heavy: EVQLLESGGGLVQPGGSLRLSCAASGFTFSTYAMNWVRQAPGKGLEWVSRIRSKYNNYATYYADSVKDRFTISRDDSKSTLYLQMNSLRAEDTAVYYCVRHGNFGNSYVSWFAYWGQGTLVTVSSASTKGPSVFPLAPSSKSTSGGTAALGCLVKDYFPEPVTVSWNSGALTSGVHTFPAVLQSSGLYSLSSVVTVPSSSLGTQTYICNVNHKPSNTKVDKKVEPKSCDKTHTCPPCPAPEAAGGPSVFLFPPKPKDTLMISRTPEVTCVVVDVSHEDPEVKFNWYVDGVEVHNAKTKPREEQYNSTYRVVSVLTVLHQDWLNGKEYKCKVSNKALGAPIEKTISKAKGQPREPQVYTLPPCREEMTKNQVSLWCLVKGFYPSDIAVEWESNGQPENNYKTTPPVLDSDGSFFLYSKLTVDKSRWQQGNVFSCSVMHEALHNHYTQKSLSLSPGK EVQLLESGGGLVQPGGSLRLSCAASGFTFSSYAMIWVRQAPGKGLEWVSGISESGGSTYYADSVKGRFTISRDNSKNTLYLQMNSLRAEDTAVYFCVKDLDDILTGYYKDYWGQGTLVTVSSRTGGGGSGGGGSGGGGSKLEVQLVETGGGLIQPGGSLRLSCAASGFPVSSNYMSWVRQAPGKGLEWVSVIFSGGRTYYADSVKGRFTISRDNSKNTLYLQMNSLRAEDTAVYYCARRNWIDGRDAFDIWGQGTMVTVSSASEPKSSDKTHTCPPCPAPEAAGGPSVFLFPPKPKDTLMISRTPEVTCVVVDVSHEDPEVKFNWYVDGVEVHNAKTKPREEQYNSTYRVVSVLTVLHQDWLNGKEYKCKVSNKALGAPIEKTISKAKGQPREPQVCTLPPSREEMTKNQVSLSCAVKGFYPSDIAVEWESNGQPENNYKTTPPVLDSDGSFFLVSKLTVDKSRWQQGNVFSCSVMHEALHNHYTQKSLSLSPGK | – | – | 17.1 nM | 78000 | 7610 |

Now those with a lower EC50 (human BCMA [2]), led by results:

| EC50 (human BCMA [1]) | Maximum MFI (human BCMA [1]) | EC50 (human BCMA [2]) | Maximum MFI (human BCMA [2]) | Maximum MFI (cynomolgus monkey BCMA) | Binder |
| --- | --- | --- | --- | --- | --- |
| 0.767 nM | 15500 | 4.27 nM | 4360 | 15000 | PR002892 (bispecific antibody, human IgG1, lambda, L234A L235A) light: QAVVTQEPSLTVSPGGTVTLTCRSSTGAVTTSNYANWVQQKPGQAPRGLIGGTNKRAPWTPARFSGSLLGDKAALTLLGAQPEDEAEYFCALWYSNLWVFGGGTKLTVLGQPKAAPSVTLFPPSSEELQANKATLVCLISDFYPGAVTVAWKADSSPVKAGVETTTPSKQSNNKYAASSYLSLTPEQWKSHRSYSCQVTHEGSTVEKTVAPTECS heavy: not shown EVQLVETGGGLIQPGGSLRLSCAASGFTVSDNYMTWVRQAPGKGLEWVSVIFSGGNTYYADSVKGRFTISRDNAKNTLYLQMNSLRAEDTALYYCARRNYDDTRGTDVFDIWGQGTMVTVSSGGGGSEVQLVETGGGLIQPGGSLRLSCAASGFTVSDNYMTWVRQAPGKGLEWVSVIFSGGNTYYADSVKGRFTISRDNAKNTLYLQMNSLRAEDTALYYCARRNYDDTRGTDVFDIWGQGTMVTVSSASEPKSSDKTHTCPPCPAPEAAGGPSVFLFPPKPKDTLMISRTPEVTCVVVDVSHEDPEVKFNWYVDGVEVHNAKTKPREEQYNSTYRVVSVLTVLHQDWLNGKEYKCKVSNKALPAPIEKTISKAKGQPREPQVCTLPPSREEMTKNQVSLSCAVKGFYPSDIAVEWESNGQPENNYKTTPPVLDSDGSFFLVSKLTVDKSRWQQGNVFSCSVMHEALHNHYTQKSLSLSPGK |
| – | – | 3.54 nM | 60000 | 6440 | PR002326 (bispecific antibody, human IgG1, lambda, L234A L235A) light: QAVVTQEPSLTVSPGGTVTLTCRSSTGAVTTSNYANWVQQKPGQAPRGLIGGTNKRAPWTPARFSGSLLGDKAALTLLGAQPEDEAEYFCALWYSNLWVFGGGTKLTVLGQPKAAPSVTLFPPSSEELQANKATLVCLISDFYPGAVTVAWKADSSPVKAGVETTTPSKQSNNKYAASSYLSLTPEQWKSHRSYSCQVTHEGSTVEKTVAPTECS heavy: EVQLLESGGGLVQPGGSLRLSCAASGFTFSTYAMNWVRQAPGKGLEWVSRIRSKYNNYATYYADSVKDRFTISRDDSKSTLYLQMNSLRAEDTAVYYCVRHGNFGNSYVSWFAYWGQGTLVTVSSASTKGPSVFPLAPSSKSTSGGTAALGCLVKDYFPEPVTVSWNSGALTSGVHTFPAVLQSSGLYSLSSVVTVPSSSLGTQTYICNVNHKPSNTKVDKKVEPKSCDKTHTCPPCPAPEAAGGPSVFLFPPKPKDTLMISRTPEVTCVVVDVSHEDPEVKFNWYVDGVEVHNAKTKPREEQYNSTYRVVSVLTVLHQDWLNGKEYKCKVSNKALGAPIEKTISKAKGQPREPQVYTLPPCREEMTKNQVSLWCLVKGFYPSDIAVEWESNGQPENNYKTTPPVLDSDGSFFLYSKLTVDKSRWQQGNVFSCSVMHEALHNHYTQKSLSLSPGK EVQLVETGGGLIQPGGSLRLSCAASGFTVSSNYMTWVRQAPGKGLEWVSVIFSGGSTYYADSVKGRFTISRDNSKNTLYLQMNSLRAEDTAVYYCARRIAVAGHDVFDIWGQGTMVTVSSRTGGGGSGGGGSGGGGSKLEVQLVETGGGLIQPGGSLRLSCAASGFTVSDNYMTWVRQAPGKGLEWVSVIFSGGNTYYADSVKGRFTISRDNAKNTLYLQMNSLRAEDTALYYCARRNYDDTRGTDVFDIWGQGTMVTVSSASEPKSSDKTHTCPPCPAPEAAGGPSVFLFPPKPKDTLMISRTPEVTCVVVDVSHEDPEVKFNWYVDGVEVHNAKTKPREEQYNSTYRVVSVLTVLHQDWLNGKEYKCKVSNKALGAPIEKTISKAKGQPREPQVCTLPPSREEMTKNQVSLSCAVKGFYPSDIAVEWESNGQPENNYKTTPPVLDSDGSFFLVSKLTVDKSRWQQGNVFSCSVMHEALHNHYTQKSLSLSPGK |
